Laboratory results reported in patent US20120321699A1.

Legend:
[1] = target: SSB autoantigen; experiment: Athena assay, mAb 25 ug/ml; positive >50
[2] = target: Sm autoantigen; experiment: Athena assay, mAb 25 ug/ml; positive >50
[3] = target: SSA autoantigen; experiment: Athena assay, mAb 25 ug/ml; positive >50
[4] = target: Scl 70 autoantigen; experiment: Athena assay, mAb 25 ug/ml; positive >50
[5] = target: centromere B autoantigen; experiment: Athena assay, mAb 25 ug/ml; positive >50
[6] = target: Histone autoantigen; experiment: Athena assay, mAb 25 ug/ml; positive >50
[7] = target: Jo 1 autoantigen; experiment: Athena assay, mAb 25 ug/ml; positive >50
[8] = target: RNP autoantigen; experiment: Athena assay, mAb 25 ug/ml; positive >50
[9] = target: SSB autoantigen; experiment: Athena assay, mAb 50 ug/ml; positive >50
[10] = target: Sm autoantigen; experiment: Athena assay, mAb 50 ug/ml; positive >50
[11] = target: SSA autoantigen; experiment: Athena assay, mAb 50 ug/ml; positive >50
[12] = target: Scl 70 autoantigen; experiment: Athena assay, mAb 50 ug/ml; positive >50
[13] = target: centromere B autoantigen; experiment: Athena assay, mAb 50 ug/ml; positive >50
[14] = target: Histone autoantigen; experiment: Athena assay, mAb 50 ug/ml; positive >50
[15] = target: Jo 1 autoantigen; experiment: Athena assay, mAb 50 ug/ml; positive >50
[16] = target: RNP autoantigen; experiment: Athena assay, mAb 50 ug/ml; positive >50
[17] = target: Influenza HA (Wisconsin) (influenza virus); experiment: Luminex assay, antibody 50 µg/ml
[18] = target: A244 gD- gp120 (HIV-1); experiment: SPR
[19] = target: CM 243 gp120 (HIV-1); experiment: ELISA on monomeric envelope
[20] = target: HV00046 (902114 B2 140C) (HIV-1); experiment: ELISA on monomeric envelope
[21] = target: SSB autoantigen; experiment: Athena assay, mAb 12.5 ug/ml; positive >50
[22] = target: Sm autoantigen; experiment: Athena assay, mAb 12.5 ug/ml; positive >50
[23] = target: SSA autoantigen; experiment: Athena assay, mAb 12.5 ug/ml; positive >50
[24] = target: Scl 70 autoantigen; experiment: Athena assay, mAb 12.5 ug/ml; positive >50
[25] = target: centromere B autoantigen; experiment: Athena assay, mAb 12.5 ug/ml; positive >50
[26] = target: Histone autoantigen; experiment: Athena assay, mAb 12.5 ug/ml; positive >50
[27] = target: Jo 1 autoantigen; experiment: Athena assay, mAb 12.5 ug/ml; positive >50
[28] = target: RNP autoantigen; experiment: Athena assay, mAb 12.5 ug/ml; positive >50
[29] = target: Env of HIV-1 clade A isolate Q23.17 (HIV-1); experiment: cell-based or functional assay
[30] = target: Env of HIV-1 7165.18.N160K (HIV-1); experiment: cell-based or functional assay
[31] = target: Env of HIV-1 clade B isolate 7165.18 (HIV-1); experiment: cell-based or functional assay
[32] = target: Env of HIV-1 JRCSF.N160K (HIV-1) (UniProt P20871); experiment: cell-based or functional assay
[33] = target: Env of HIV-1 JRFL.E168K (HIV-1); experiment: cell-based or functional assay
[34] = target: Env of HIV-1 clade B isolate JRFL (virus) (HIV-1); experiment: cell-based or functional assay
[35] = target: Env of HIV-1 JRFL.N160K.E168K (HIV-1); experiment: cell-based or functional assay
[36] = target: Env of HIV-1 Q23.17.N160K (HIV-1); experiment: cell-based or functional assay
[37] = target: SSB autoantigen; experiment: Athena assay, mAb 6.25 ug/ml; positive >50
[38] = target: Sm autoantigen; experiment: Athena assay, mAb 6.25 ug/ml; positive >50
[39] = target: SSA autoantigen; experiment: Athena assay, mAb 6.25 ug/ml; positive >50
[40] = target: Scl 70 autoantigen; experiment: Athena assay, mAb 6.25 ug/ml; positive >50
[41] = target: centromere B autoantigen; experiment: Athena assay, mAb 6.25 ug/ml; positive >50
[42] = target: Histone autoantigen; experiment: Athena assay, mAb 6.25 ug/ml; positive >50
[43] = target: Jo 1 autoantigen; experiment: Athena assay, mAb 6.25 ug/ml; positive >50
[44] = target: RNP autoantigen; experiment: Athena assay, mAb 6.25 ug/ml; positive >50

## CH01 (antibody)
[1]
  Autoreactivity (Athena): 5.5
[2]
  Autoreactivity (Athena): 4
[3]
  Autoreactivity (Athena): 6.5
[4]
  Autoreactivity (Athena): 3
[5]
  Autoreactivity (Athena): 14
[6]
  Autoreactivity (Athena): 17.5
[7]
  Autoreactivity (Athena): 2.5
[8]
  Autoreactivity (Athena): 5.5
[9]
  Autoreactivity (Athena): 5.5
[10]
  Autoreactivity (Athena): 4
[11]
  Autoreactivity (Athena): 8
[12]
  Autoreactivity (Athena): 4
[13]
  Autoreactivity (Athena): 22
[14]
  Autoreactivity (Athena): 26
[15]
  Autoreactivity (Athena): 3.5
[16]
  Autoreactivity (Athena): 8
[17]
  background substracted RFUs: 0 RFU
[18]
  Kd: 0.34 µM
[19]
  EC50: 12.7 µM
[20]
  EC50: 63.2 µM
[21]
  Autoreactivity (Athena): 5
[22]
  Autoreactivity (Athena): 3
[23]
  Autoreactivity (Athena): 5
[24]
  Autoreactivity (Athena): 2
[25]
  Autoreactivity (Athena): 10
[26]
  Autoreactivity (Athena): 13.5
[27]
  Autoreactivity (Athena): 2
[28]
  Autoreactivity (Athena): 4.5
[29]
  IC50 ug/ml (virus neutralization): 0.014 µg/mL
  IC80 ug/ml (virus neutralization): 0.035 µg/mL
[30]
  IC50 ug/ml (virus neutralization): > 50 µg/mL
  IC80 ug/ml (virus neutralization): > 50 µg/mL
[31]
  IC50 ug/ml (virus neutralization): 5.82 µg/mL
  IC80 ug/ml (virus neutralization): > 50 µg/mL
[32]
  IC50 ug/ml (virus neutralization): > 50 µg/mL
  IC80 ug/ml (virus neutralization): > 50 µg/mL
[33]
  IC50 ug/ml (virus neutralization): 0.044 µg/mL
  IC80 ug/ml (virus neutralization): 0.382 µg/mL
[34]
  IC50 ug/ml (virus neutralization): > 50 µg/mL
  IC80 ug/ml (virus neutralization): > 50 µg/mL
[35]
  IC50 ug/ml (virus neutralization): > 50 µg/mL
  IC80 ug/ml (virus neutralization): > 50 µg/mL
[36]
  IC50 ug/ml (virus neutralization): > 50 µg/mL
  IC80 ug/ml (virus neutralization): > 50 µg/mL
[37]
  Autoreactivity (Athena): 5.5
[38]
  Autoreactivity (Athena): 2.5
[39]
  Autoreactivity (Athena): 5.5
[40]
  Autoreactivity (Athena): 1.5
[41]
  Autoreactivity (Athena): 7
[42]
  Autoreactivity (Athena): 10
[43]
  Autoreactivity (Athena): 2
[44]
  Autoreactivity (Athena): 4
